The test system of series [1] is purified human H2A recombinant protein (NEB).
For series [2], the system named is purified human H3 recombinant protein (NEB).
Series [3] deals with purified human H4 recombinant protein (NEB) (UniProt P62805).
In series [4] the test system is purified human H2B recombinant protein (NEB).
The subject of series [5] is biotinylated human histone H2B derived peptide KRSRKESYSVYVYKVL
In series [6] the test system is biotinylated H4-derived unphosphorylated peptide TVTAMDVVYALKRQGRT

Chain of recombinant GST-WEE1 protein (Invitrogen) (chain, as listed by the source): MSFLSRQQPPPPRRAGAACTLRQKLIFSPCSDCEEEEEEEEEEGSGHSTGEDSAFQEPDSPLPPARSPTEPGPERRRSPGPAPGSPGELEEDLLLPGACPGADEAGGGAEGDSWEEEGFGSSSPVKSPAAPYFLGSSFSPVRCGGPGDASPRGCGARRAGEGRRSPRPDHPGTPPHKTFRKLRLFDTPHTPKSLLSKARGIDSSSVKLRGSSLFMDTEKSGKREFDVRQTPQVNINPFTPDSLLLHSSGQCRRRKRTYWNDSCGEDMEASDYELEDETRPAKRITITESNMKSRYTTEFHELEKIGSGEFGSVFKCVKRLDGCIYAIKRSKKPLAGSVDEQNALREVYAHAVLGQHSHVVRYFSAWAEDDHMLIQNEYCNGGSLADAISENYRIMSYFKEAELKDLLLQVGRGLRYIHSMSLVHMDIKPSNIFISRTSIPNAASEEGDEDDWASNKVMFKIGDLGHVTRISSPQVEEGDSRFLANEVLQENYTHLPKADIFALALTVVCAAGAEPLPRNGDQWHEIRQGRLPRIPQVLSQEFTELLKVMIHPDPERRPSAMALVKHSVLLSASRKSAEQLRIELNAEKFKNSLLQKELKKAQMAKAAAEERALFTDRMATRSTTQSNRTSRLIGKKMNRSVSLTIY

For the substance “recombinant GST-WEE1 protein (Invitrogen)”, the “in vitro kinase assay, immunoblot with pTyr37-H2B antibody” value in series [1] is “failed to phosphorylate other three core histones, H2A, H3 and H4”; in series [2] it was “failed to phosphorylate other three core histones, H2A, H3 and H4”; in series [3], “failed to phosphorylate other three core histones, H2A, H3 and H4”; in series [4], “When purified WEE1 and H2B were incubated, H2B was Tyr37-phosphorylated”.

For “purified WEE1 protein (Examples 5 and 7)”, the “Peptide Immunosandwich Assay (PIA), H2B Tyr37-phosphorylation read at 450 nm” value in series [5] was “Purified WEE1 exhibited robust H2B Tyr37-phosphorylation”. The “in vitro kinase assay on plate-bound peptide, ELISA with pY88-H4 antibodies” value in series [6] was “Incubation of H4 peptide with WEE1 and Ack1 protein resulted in robust H4 Tyr88-phosphorylation”.

Source of the values: patent publication US20150011567.
